Drawing on paper PMC3753260, “High Yield Production of a Soluble Human Interleukin-3 Variant from E. coli with Wild-Type Bioactivity and Improved Radiolabeling Properties” (PLoS ONE, 2013), this text covers Kd for one molecule.

In assay [1] the target is T1, hIL-3Rα and hβc subunits co-expressed (hIL-3 receptor) (human, UniProt P26951 19-378; P32927 17-897).
T1 construct: human interleukin-3 receptor α subunit, transiently co-expressed with βc on COS cells; human common β-subunit (βc) shared with the IL-5 and GM-CSF receptors, transiently co-expressed with IL-3Rα on COS cells; The two subunits were co-expressed on the same cells; also called IL-3Rα and βc; hIL-3 receptors; source: COS cells, transfected by electroporation (pSG5: IL-3Rα and pSG5: βc), on cells
Nature of the assay: radioligand binding; ^125I-labelled hIL-3(13-125; W13Y) on COS cells transiently expressing IL-3 receptors; Scatchard analysis with EBDA-LIGAND software. As to conditions: one partner purified.

A further assay addresses T2, human IL-3Rα subunit (human, UniProt P26951 19-378).
T2 construct: human interleukin-3 receptor α subunit, transiently expressed on COS cells; also called hIL-3Rα; IL-3-specific α-subunit; source: COS cells, transfected by electroporation (pSG5: IL-3Rα), on cells
The description is as above. As to conditions: one partner purified.

As usually defined, the Kd is the constant that tells how readily two partners part at equilibrium. The low end stands for a tighter complex, the high end for a looser complex.

T1 sequence (P26951 19-378, chain 1 of 2): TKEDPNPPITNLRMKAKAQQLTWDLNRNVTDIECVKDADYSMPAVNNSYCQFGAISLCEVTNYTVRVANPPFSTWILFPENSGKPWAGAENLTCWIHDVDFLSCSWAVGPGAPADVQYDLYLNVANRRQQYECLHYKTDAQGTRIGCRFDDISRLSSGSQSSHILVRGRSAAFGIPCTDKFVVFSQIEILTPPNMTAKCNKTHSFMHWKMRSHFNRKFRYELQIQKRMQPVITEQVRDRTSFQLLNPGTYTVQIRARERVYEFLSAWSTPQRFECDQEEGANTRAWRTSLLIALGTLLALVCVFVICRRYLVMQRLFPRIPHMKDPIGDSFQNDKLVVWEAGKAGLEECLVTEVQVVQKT
T1 sequence (P32927 17-897, chain 2 of 2): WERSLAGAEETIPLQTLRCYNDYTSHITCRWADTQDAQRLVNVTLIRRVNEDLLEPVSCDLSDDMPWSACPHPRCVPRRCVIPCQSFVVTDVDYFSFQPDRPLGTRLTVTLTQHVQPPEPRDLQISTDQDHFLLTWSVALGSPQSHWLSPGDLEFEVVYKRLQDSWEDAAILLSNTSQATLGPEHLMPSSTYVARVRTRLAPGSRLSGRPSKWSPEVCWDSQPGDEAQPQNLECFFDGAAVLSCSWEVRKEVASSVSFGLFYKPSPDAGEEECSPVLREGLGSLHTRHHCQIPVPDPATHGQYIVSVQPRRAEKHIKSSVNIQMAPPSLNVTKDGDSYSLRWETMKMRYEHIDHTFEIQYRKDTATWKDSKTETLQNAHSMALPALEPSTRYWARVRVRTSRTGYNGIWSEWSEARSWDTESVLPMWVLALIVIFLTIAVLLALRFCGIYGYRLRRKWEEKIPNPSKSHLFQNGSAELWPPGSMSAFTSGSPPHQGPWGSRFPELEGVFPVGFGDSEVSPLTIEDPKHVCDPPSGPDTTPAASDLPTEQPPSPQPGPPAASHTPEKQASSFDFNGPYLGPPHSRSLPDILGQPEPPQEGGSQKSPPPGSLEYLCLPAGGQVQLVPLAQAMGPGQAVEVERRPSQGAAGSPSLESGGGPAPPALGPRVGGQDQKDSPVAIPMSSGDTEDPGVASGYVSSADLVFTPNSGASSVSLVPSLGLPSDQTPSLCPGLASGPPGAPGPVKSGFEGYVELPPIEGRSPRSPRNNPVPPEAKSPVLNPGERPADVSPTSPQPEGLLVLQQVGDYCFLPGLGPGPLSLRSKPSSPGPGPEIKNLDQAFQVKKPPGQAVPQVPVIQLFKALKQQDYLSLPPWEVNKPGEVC
T2 sequence (P26951 19-378): as the sequence (P26951 19-378, chain 1 of 2) above

B1: ^125I-hIL-3(13-125; W13Y) (ligand, human)
chain: GAMGSYVNCSNMIDEIITHLKQPPLPLLDFNNLNGEDQDILMENNLRRPNLEAFNRAVKSLQNASAIESILKNLLPCLPLATAAPTRHPIHIKDGDWNEFRRKLTFYLKTLENAQAQQ
modifications: ^125I radio-iodinated (tyrosine labelling, Pierce Pre-Coated Iodination tubes / Iodogen)
notes: non-native N-terminal overhang left after TEV protease cleavage of the NusA-His6 tag (cloning artifact); human interleukin-3, four-helix bundle core, residues 13-125 with W13Y; numbers count on: the mature protein; Vector pETNusH HTb; also called hIL-3(W13Y); hIL-3 analog; source: E. coli BL21 CodonPlus (DE3)-RIPL, purified (Ni-NTA, TEV cleavage, SEC, in some cases RP-HPLC), then radio-iodinated; …
On to B1, for which the figures for the Kd (in assay [1]; with human IL-3Rα subunit) were 0.456 nM and 143 nM, respectively.
